Experimental data published in paper PMC4858151, “Phosphorylation of Human Choline Kinase Beta by Protein Kinase A: Its Impact on Activity and Inhibition” (PLoS ONE, 2016).

B1: choline kinase beta (CKβ) (Homo sapiens) (protein)
chain: AAEATAVAGSGAVGGCLAKDGLQQSKCPDTTPKRRRASSLSRDAERRAYQWCREYLGGAWRRVQPEELRVYPVSGGLSNLLFRCSLPDHLPSVGEEPREVLLRLYGAILQGVDSLVLESVMFAILAERSLGPQLYGVFPEGRLEQYIPSRPLKTQELREPVLSAAIATKMAQFHGMEMPFTKEPHWLFGTMERYLKQIQDLPPTGLPEMNLLEMYSLKDEMGNLRKLLESTPSPVVFCHNDIQEGNILLLSEPENADSLMLVDFEYSSYNYRGFDIGNHFCEWVYDYTHEEWPFYKARPTDYPTQEQQLHFIRHYLAEAKKGETLSQEEQRKLEEDLLVEVSRYALASHFFWGLWSILQASMSTIEFGYLDYAQSRFQFYFQQKGQLTSVHSSS
notes: purified recombinant unphosphorylated CKβ
B2: choline kinase beta (CKβ) (Homo sapiens; S39D/S40D) (protein)
chain: AAEATAVAGSGAVGGCLAKDGLQQSKCPDTTPKRRRADDLSRDAERRAYQWCREYLGGAWRRVQPEELRVYPVSGGLSNLLFRCSLPDHLPSVGEEPREVLLRLYGAILQGVDSLVLESVMFAILAERSLGPQLYGVFPEGRLEQYIPSRPLKTQELREPVLSAAIATKMAQFHGMEMPFTKEPHWLFGTMERYLKQIQDLPPTGLPEMNLLEMYSLKDEMGNLRKLLESTPSPVVFCHNDIQEGNILLLSEPENADSLMLVDFEYSSYNYRGFDIGNHFCEWVYDYTHEEWPFYKARPTDYPTQEQQLHFIRHYLAEAKKGETLSQEEQRKLEEDLLVEVSRYALASHFFWGLWSILQASMSTIEFGYLDYAQSRFQFYFQQKGQLTSVHSSS
notes: purified S39D/S40D CKβ

Assays:
Format in all cases: biochemical, Homo sapiens
purified protein = substrate: Nc1ncnc2c1ncn2[C@@H]1O[C@H](COP(=O)(O)OP(=O)(O)OP(=O)(O)O)[C@@H](O)[C@H]1O; experiment: purified protein; conditions: MgCl2
[1] = substrate: C[N+](C)(C)CCO; experiment: Michaelis-Menten kinetics (Km), PK-LDH coupled assay; conditions: MgCl2, ATP choline binding site
[2] = substrate: NCCO; experiment: as above; conditions: MgCl2, ATP

Row | Protein | Km (purified protein) | Vmax (purified protein) | kcat (purified protein) | kcat/Km (purified protein) | Km [1] | Vmax [1] | kcat [1] | kcat/Km [1] | Km [2] | Vmax [2] | kcat [2] | kcat/Km [2]
1 | B1 | 0.65 ± 0.03 mM | 72.5 µmol/min/mg | 21.5 s⁻¹ | 39100 M⁻¹ s⁻¹ | 0.42 ± 0.06 mM | 64.3 µmol/min/mg | 48.2 s⁻¹ | 115000 M⁻¹ s⁻¹ | 0.26 ± 0.01 mM | 14.3 µmol/min/mg | – | –
2 | B2 | 0.5853 ± 0.03 mM | 67.3 µmol/min/mg | 21.3 s⁻¹ | 37400 M⁻¹ s⁻¹ | 0.46 ± 0.06 mM | 60.4 µmol/min/mg | 45.3 s⁻¹ | 98500 M⁻¹ s⁻¹ | 0.57 ± 0.02 mM | 28.4 µmol/min/mg | 45.3 s⁻¹ | 98500 M⁻¹ s⁻¹
